Consider 1 substance from paper PMC13096800.

A word on the stoichiometry N: it is the number of molecules, sites or subunits per partner or assembly.

The target in the assay is apoptosis-inducing factor, mitochondrial (AIFM1) (human) (UniProt O95831). Nature of the assay: cross-linking; sulfo-SDA (0.5 mM) photo-cross-linking of AIFM1 at 1 mg/ml, pre-incubated on ice with 1 mM NADH for 1 h to induce dimerization; 10 mM HEPES-NaOH pH 7.8, 150 mM NaCl, 4 mM MgCl2, 0.5 mM TCEP; UVEN UV activation 0-180 s; SDS-PAGE, and LC-MS/MS of the 32-s sample.

“apoptosis-inducing factor, mitochondrial (AIFM1) (from UniProt O95831 103-613) (natural protein)”: the stoichiometry N came out at 2.
